Source: patent publication US11906524B2, “Urea biosensors and uses thereof” (Duke University, priority 2015, dated 2024)
Like-named read-outs stand apart in the source and are kept apart here.

Tests used:
Type in all cases: binding
[1] = Urea titration of emission intensity spectra (Nanodrop3300) with ratiometric analysis, singly labeled conjugates; design: key: m, monochromatic; d, dichromatic (i.e. spectral shape change); conditions: urea response
From the text: (§1) Determination of emission intensity spectra.
(§2) Ratiometric analysis of urea binding. […] 2
(§3) For a single urea-binding site, the fractional saturation is given by
(§4) [formula] where [L] is the ligand (urea) concentration and Kd the dissociation constant, ^trueKd for ytrue.
(§5) [formula] where ^appIλ2 and ^satIλ2 are the emission intensities of the monochromatic signal at wavelength λ2 of the ligand-free and ligand-bound protein, respectively.

[2] = as above; conditions: urea
From the text: as §1, §2, §3, §4, §5

[3] = Temperature- and urea-dependent fluorescence landscapes of fluorescent conjugates (Roche LightCycler); design: key: y, yes; n, no; conditions: Acrylodan conjugate; fluorescent response to urea
In short: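 Acrylodan or Badan was attached to single-cysteine csUBP7 mutants and fluorescence was recorded over 0–4.8 M urea in 20 mM KCl, 20 mM MOPS (pH 7.4), with temperature stepped by 1K. Urea Kd came from ratiometric single-site fits, and Kd values across temperatures were fit to the Gibbs-Helmholtz equation.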

[4] = Urea titration of emission intensity spectra (Nanodrop3300) with ratiometric analysis, singly labeled conjugates; design: key: m, monochromatic; d, dichromatic (i.e. spectral shape changes); 0, no change; conditions: urea response
From the text: as §1, §2, §3, §4, §5

[5] = ctUBP6 Acrylodan conjugate, nb = no binding, read-out: ^appKd
[6] = ctUBP6 Badan conjugate, ^d = noisy data and or bad fit, read-out: ^appKd
[7] = ctUBP6 Badan conjugate, ^d = noisy data and or bad fit, read-out: ^trueKd
[8] = ctUBP6 Acrylodan conjugate, nb = no binding, read-out: ^trueKd

Molecule | Shape ([1]; ctUBP6 Acrylodan conjugate) | Shape ([1]; ctUBP6 Badan conjugate) | Kd [2, 5] | Kd [2, 6] | Kd [2, 7] | Response [3] | Kd [2, 8] | Shape ([4]; ctUBP6 Acrylodan conjugate) | Shape ([4]; ctUBP6 Badan conjugate)
ctUBP6 T96C: ctUBP6 96C cysteine mutant (SEQ ID NO: 50), tested as Acrylodan and Badan conjugates (conjugate, Acrylodan or Badan conjugate; ctUBP6_96C (96C substitution mutant with signal peptide replaced with M and a GGSHHHHHH at C-terminus)) MVEEPVDNKPGTDTSAEDTIKVGILHSLSGTMAISEVSLKDAELMAIEEINQAGGLLGKKIEPVIEDGASDWPTFAEKAKKLLQNDKVATVFGCWCSASRKAVLPVFEENNGLLWYPVQYEGMESSPNIFYTGAAPNQQIVPAVEWLLENKGKRFFLLGSDYVFPRTANKIIKAQLSAIGGELIAEEYTPLGHTDYSTIVNKIKTAKPDVVFNTLNGDSNVAFFKQLKDAGITSEDITVCSVSVAEEEIRGIGAENIKGHLVSWNYYQTTDTPENKEFVEKYKSKYGSDRVTDDPIEAAYIAVHLWAEAVKKAGSFEVEKVKEAAKGLEFKAPEGLVKIEGENQHLWKPVRIGEVQEDGLIKEIWSTSEAVRPDPYLKTYDWAKGLSDGGSHHHHHH | d | d | 520 µM | 620 µM | 500 µM | n |  |  | 
ctUBP6 F164C: ctUBP6 164C cysteine mutant (SEQ ID NO: 53), tested as Acrylodan and Badan conjugates (conjugate, Acrylodan or Badan conjugate; ctUBP6_164C (164C substitution mutant with signal peptide replaced with M and a GGSHHHHHH at C-terminus)) MVEEPVDNKPGTDTSAEDTIKVGILHSLSGTMAISEVSLKDAELMAIEEINQAGGLLGKKIEPVIEDGASDWPTFAEKAKKLLQNDKVATVFGCWTSASRKAVLPVFEENNGLLWYPVQYEGMESSPNIFYTGAAPNQQIVPAVEWLLENKGKRFFLLGSDYVCPRTANKIIKAQLSAIGGELIAEEYTPLGHTDYSTIVNKIKTAKPDVVFNTLNGDSNVAFFKQLKDAGITSEDITVCSVSVAEEEIRGIGAENIKGHLVSWNYYQTTDTPENKEFVEKYKSKYGSDRVTDDPIEAAYIAVHLWAEAVKKAGSFEVEKVKEAAKGLEFKAPEGLVKIEGENQHLWKPVRIGEVQEDGLIKEIWSTSEAVRPDPYLKTYDWAKGLSDGGSHHHHHH | d | d | 23000 µM | 9400 µM | 11000 µM | y | 22000 µM |  | 
ctUBP6 L191C: ctUBP6 191C cysteine mutant (SEQ ID NO: 54), tested as Acrylodan and Badan conjugates (conjugate, Acrylodan or Badan conjugate; ctUBP6_191C (191C substitution mutant with signal peptide replaced with M and a GGSHHHHHH at C-terminus)) MVEEPVDNKPGTDTSAEDTIKVGILHSLSGTMAISEVSLKDAELMAIEEINQAGGLLGKKIEPVIEDGASDWPTFAEKAKKLLQNDKVATVFGCWTSASRKAVLPVFEENNGLLWYPVQYEGMESSPNIFYTGAAPNQQIVPAVEWLLENKGKRFFLLGSDYVFPRTANKIIKAQLSAIGGELIAEEYTPCGHTDYSTIVNKIKTAKPDVVFNTLNGDSNVAFFKQLKDAGITSEDITVCSVSVAEEEIRGIGAENIKGHLVSWNYYQTTDTPENKEFVEKYKSKYGSDRVTDDPIEAAYIAVHLWAEAVKKAGSFEVEKVKEAAKGLEFKAPEGLVKIEGENQHLWKPVRIGEVQEDGLIKEIWSTSEAVRPDPYLKTYDWAKGLSDGGSHHHHHH |  |  | 150 µM | 310 µM | 340 µM | y | 110 µM | m | m
